In article PMC10415144, “Structural insights into CodY activation and DNA recognition” (Nucleic Acids Research, 2021):

B1: Enterococcus faecalis CodY (EfCodY), full length (natural protein)
chain: GAMATLLEKTRQVNELLQKNNLFDVQAELPYNKMAMILGDILESNAYIISSSGDLLGYTEKLDVNNARIKNMFKEKKFPQGYTEAVDMLKVTEANIPIDSDLTAFPFESRELYPFGLTTIVPLYGAGKRLGTIILARVEKSFNEDDLVLAEYSATVVGMQILYHQSRTIEAEVRSATAVQMAINTLSYSELKAVHAIFEALDGEEGRLTASSIADEIGITRSVIVNALRKLESAGIIESRSLGMKGTYLKVLNQQFIKELEK
notes: also called CodY from Ef
B2: EfCodY quadruple mutant (Tyr186, Arg238, Leu240 and Tyr246 replaced with Ala) (natural protein)
chain: GAMATLLEKTRQVNELLQKNNLFDVQAELPYNKMAMILGDILESNAYIISSSGDLLGYTEKLDVNNARIKNMFKEKKFPQGYTEAVDMLKVTEANIPIDSDLTAFPFESRELYPFGLTTIVPLYGAGKRLGTIILARVEKSFNEDDLVLAEYSATVVGMQILYHQSRTIEAEVRSATAVQMAINTLSASELKAVHAIFEALDGEEGRLTASSIADEIGITRSVIVNALRKLESAGIIESASAGMKGTALKVLNQQFIKELEK
notes: also called EfCodY-mutant

Legend:
[1] = molecular target: the molecule itself; assay: mass photometry; Refeyn OneMP; 100 nM CodY, ligand-free, 20 mM Tris-HCl pH 8, 200 mM NaCl
[2] = molecular target: the molecule itself; assay: mass photometry + SEC-MALS; data not shown; EfCodY quadruple mutant in solution

Protein | stoichiometry N [1] | stoichiometry N [2]
B1 | 2 | 
B2 |  | 2
